This assay concerns the target T1, Recombinant Human FGFR1 alpha (IIIc) Fc Chimera Protein (Homo sapiens, UniProt P11362).
T1 construct: purchased R&D systems 658-FR-050
Nature of the assay: SPR binding affinity of chemically synthesized cyclic peptide to immobilized FGFR. The conditions noted are these: SPR binding amount at 10 nmol/L cyclic peptide, 25° C.; chemically synthesized product. Here is the method:
The binding affinity of the cyclic peptide to FGFR was evaluated using a surface plasmon resonance (SPR) method.
The binding affinity of the chemically synthesized cyclic peptide to FGFR was evaluated by the following procedure.
A CM5 sensor chip (Cytiva, 29149603) was set in Biacore-T200 (manufactured by Cytiva) which is a surface plasmon resonance device, and an HBS-EP buffer (Cytiva, BR100826) was added as a running buffer at a flow rate of 10 μL/min to equilibrate the flow channel. Next, 70 μL of a mixed aqueous solution of 0.2 mol/L 1-(3-dimethylaminopropyl)-3-ethylcarbodiimide (EDC) and 0.05 mol/L N-hydroxysuccinimide (NHS) was added to activate the sensor chip. Then, Recombinant Human FGFR1 alpha (IIIc) Fc Chimera Protein CF (R&D systems, 658-FR-050) prepared at 50 nmol/L in an Acetate 4.5 buffer (Cytiva, BR100350) was added thereto to perform immobilization at about 5000 RU. Thereafter, the blocking treatment was performed with an ethanolamine solution. In addition, in another flow channel of the same sensor chip, blocking treatment was performed immediately after activation without immobilizing FGFR.
A cyclic peptide diluted to 10 nmol/L using HBS-EP was added to each flow channel of the FGFR-immobilized sensor chip produced above at 25° C. for 10 minutes, then HBS-EP was allowed to flow as a running buffer for 30 minutes, and the binding of the cyclic peptide to FGFR was measured. Thereafter, a regeneration treatment of removing the bound cyclic peptide was performed by repeating the flow of a regeneration liquid in which sodium chloride powder was dissolved in Glysine 1.5 (Cytiva, BR100354) to a final concentration of 0.15 mol/L for 1 minute in each flow channel twice. The binding amount of the cyclic peptide was evaluated from the difference between the measured value of Biacore-T200 in the flow channel in which FGFR was immobilized and the measured value of Biacore-T200 in the flow channel in which FGFR was not immobilised, in a case where a 10 nmol/L cyclic peptide was allowed to flow.
The binding amount of the cyclic peptide evaluated above was normalized to the binding amount of the cyclic peptide molecules per one molecule of FGFR using the molecular weights of the cyclic peptide and FGFR, and the binding affinity to FGFR was evaluated according to the following evaluation criteria. The evaluation result preferably satisfies the evaluation criteria A, B, or C.
• A: The binding amount is 0.7 molecules of the cyclic peptide/one molecule of FGFR or more. • B: The binding amount is 0.5 molecules of the cyclic peptide/one molecule of FGFR or more and less than 0.7 molecules of cyclic peptide/one molecule of FGFR. • C: The binding amount is 0.1 molecules of cyclic peptide/one molecule of FGFR or more and less than 0.5 molecules of cyclic peptide/one molecule of FGFR. • D: The binding amount is less than 0.1 molecules of the cyclic peptide/one molecule of FGFR.

The results in this text go back to patent publication US20260008817A1, “CYCLIC PEPTIDE OR SALT THEREOF, AND USES THEREOF” (FUJIFILM Corporation, priority 2023, published 2026).

T1 sequence (P11362 with tags, fused parts or gaps limits assumed): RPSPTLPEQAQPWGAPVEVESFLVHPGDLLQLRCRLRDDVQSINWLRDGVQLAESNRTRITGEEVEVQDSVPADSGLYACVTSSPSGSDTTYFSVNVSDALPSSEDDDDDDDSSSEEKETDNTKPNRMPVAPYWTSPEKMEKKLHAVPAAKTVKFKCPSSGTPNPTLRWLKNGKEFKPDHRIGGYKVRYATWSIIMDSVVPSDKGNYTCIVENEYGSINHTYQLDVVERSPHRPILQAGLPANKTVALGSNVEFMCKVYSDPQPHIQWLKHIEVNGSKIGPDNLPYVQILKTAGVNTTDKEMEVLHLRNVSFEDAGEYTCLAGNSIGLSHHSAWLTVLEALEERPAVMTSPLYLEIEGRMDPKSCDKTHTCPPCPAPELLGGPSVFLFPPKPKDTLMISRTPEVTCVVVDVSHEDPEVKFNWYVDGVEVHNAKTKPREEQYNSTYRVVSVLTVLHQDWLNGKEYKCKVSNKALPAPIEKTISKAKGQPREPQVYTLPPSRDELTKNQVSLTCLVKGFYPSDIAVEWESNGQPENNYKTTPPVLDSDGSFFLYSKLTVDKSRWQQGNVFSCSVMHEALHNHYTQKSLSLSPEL

As to “335 (ACVWTFDRHAQEISQALHKVKKK; not fully specified; Description of Artificial Sequence: Cyclic peptide) [compound 335]”, the “Evaluation result of binding affinity to FGFR” value is given as “A (The binding amount is 0.7 molecules of the cyclic peptide/one molecule of FGFR or more.)”.
